In patent US20170204172A1 (IMMUNDIAGNOSTIK, published 2017):

T1: human bone sialoprotein (BSP) in plasma (human, UniProt P21815 17-317, phosphorylated serine at positions 31, 67, 74, 75, 94, 100, 149, 280; sulphated tyrosine; multiple complex glycosylation (as described for human BSP))
T1 construct: Native BSP as present in human plasma; also called human BSP; hBSP
T1 sequence (looked up): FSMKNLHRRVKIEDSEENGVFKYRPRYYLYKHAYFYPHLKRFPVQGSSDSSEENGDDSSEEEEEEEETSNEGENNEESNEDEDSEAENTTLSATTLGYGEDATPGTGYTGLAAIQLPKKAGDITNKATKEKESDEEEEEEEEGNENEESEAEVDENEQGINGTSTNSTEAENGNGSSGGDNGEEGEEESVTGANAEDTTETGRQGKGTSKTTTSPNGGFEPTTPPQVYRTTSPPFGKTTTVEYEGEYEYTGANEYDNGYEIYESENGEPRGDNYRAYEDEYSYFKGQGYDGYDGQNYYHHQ


Tests used:
[1] = molecular target: T1, human bone sialoprotein (BSP) in plasma; test: titration and competition experiments
[2] = molecular target: T1, human bone sialoprotein (BSP) in plasma; test: screening of a phagemid single chain antibody library with peptide antigen and human BSP in plasma
Source text: We screened differentially a synthetic human antibody library for an antibody reacting with synthetic peptide epitopes derived and common to rat or human BSP which we assumed being accessible in plasma. Moreover, we screened a proprietary synthetic human antibody library (mAB-Factory GmbH, Braunschweig, DE), prepared in accordance with DE 4122599 C2 and WO 93/01288 (PCT/EP92/01524), for phagemid-expressed single chain antibodies binding to BSP peptide epitopes with a soluble peptide antigen as indicated and with human BSP in plasma. A respective full human antibody (AF165R4.2-E2) specific for human BSP in plasma was obtained and reconstructed.

| binding result [1] | binding result [2] | Binder |
| --- | --- | --- |
| binds | – | humanized antibody anti-BSP_IDK3 (clone AF177.3) (antibody, V domains shown, Kappa light chain; also called Humanized mAB of IDK 1) VH: QVQLQQSGAEVVKPGASVKVSCKASGYTFTDFYMHWVKQAPEQGLEWMGIINPANGNTIYAEKFQGRVTMTADKSTNTVYMELSSLTSEDTATYYCSSAYWGQGTLVTVSS VL: DIVMTQTPPSSSVTIGQPASISCKSSQSLLDNDGNTYLYWYLQKPGQSPQLLIYLVSKRRSGVPDRFSGSGSGTDFTLKISGVEAEDVGVYYCVQGTHDPWTFGGGTKVEIKR |
| – | binds | anti-BSP_IDK2 human mAb (clone AF165R4.2-E2) (antibody, V domains shown, The entries include a signal peptide that is marked only by underlining in a drawing; Lambda light chain; also called fully human anti-hBSP antibody) VH: not shown VL: QLVLTQSPSASGTPGQRVTISCSGSSSNIGSSYVYWYQQLPGAAPKLLIYRNSQRPPGVPDRFSSSKSGTSASLAISGLRSEDEADYYCATWDGSLSGWVFGGGTKLTVLG |
| binds | – | chimeric version of the rat mAb anti-BSP_IDK1 (antibody, V domains shown, The entries include a signal peptide that is marked only by underlining in a drawing; Kappa light chain; also called chimeric version of a rat mAB - IDK 1; human chimeric version of a monoclonal rat antibody) VH: QVQLQESGAELVRPGSSVKISCKASGYTFTDFYMHWVKQGPEQGLVWIGRINPANGNTIYAEKFKTKATLTADKSSNTAYMQLSSLTSEDTATYFCSSAYWGQGTLVTVSS VL: DILLTQTPPTSSATIGQSVSISCRSSQSLLDNDGNTYTLYWYLQRPTQSPQLLIYLVSKLRSGVPNRFSGSGSGTDFTLKISGVEAEDLGVYYCVQGTHDPWTFGGGTKLELKR |
